Tested on: K4 kissing-loop RNA reporter
Test: apparent KD of K4 kissing-loop reporter; higher = weaker reporter binding
Settings: Eterna round: R107
Experimental: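 RNA-MaP round R107: designed RNA switches with theophylline, tryptophan, arginine or FMN aptamers are transcribed on-chip within common flanks. They are titrated with a labelled K4 kissing-loop RNA reporter in RNA-MaP buffer (100 mM Tris pH 7.5, 80 mM KCl, 4 mM MgCl2), without ligand or with the indicated ligand. Median apparent KD per design.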

[1] = input ligand: theophylline 20 uM
[2] = input ligand: tryptophan 2.4 mM
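Further: bound reporter read as fluorescence of individual clusters on recovered sequencing chips by microscopy, with normalized cluster intensities fitted with a binding model.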

Row | Sequence | apparent KD of K4 kissing-loop reporter (input ligand: FMN 200 uM) [nM] | apparent KD of K4 kissing-loop reporter (input ligand: arginine 13.2 mM) [nM] | apparent KD of K4 kissing-loop reporter (input ligand: none) [nM] | apparent KD of K4 kissing-loop reporter [1] [nM] | apparent KD of K4 kissing-loop reporter [2] [nM]
1 | GGAUAGGACAGAGGAUAUCUCUGAGGCAAGAAAACUUGUCUCAAAAGAGAUGACUCAGUGAUGUUGAGAGAAGGCUGUCCUAUCG [FmnBX 8 - #SwitchBubble #StaticStem] | 256 | 143 | 144 | 147 | 153
2 | UGAUACCAGACGGCCGCCACUCCUGCAGUCAAAGACUGCUAAAAGGAAAUCGUCCAGUGAUGUUGGAGGACCGGGUCUGGUAUCU [TrypBX 14 #SwitchBubble #Palindromic #StaticStem] | 647 | 738 | 1150 | 685 | 372
3 | GAUUCCCAAGCGGCCGCCACUUAUAGUGAUGUUAUAGGGACUGCGGAUCAGGACAAUCAUACAUAAAGGACCGGGCUAUUCUGAC [theeternabot_exclusion_KL_Trp_B_1] | 264 | 246 | 305 | 255 | 261
4 | AUCGUUGCCAUUAGGACAUACGGUCCUGAACGAGGACCGGUACGGCCGCCACUCGAGCACACGAGUGAUGUUCGUGGGCAACGAU [Tryp A SS t1] | 131 | 107 | 137 | 136 | 358
5 | CUAUGGAAACAUAGUAAUCGGGAAACCGAUACCAGUAUGGAAACAUACCCUUGGCAGCGGAAUGAUUAAACGGAGUGAUGUUCCG [Theophylline A K4 17] | 354 | 243 | 285 | 237 | 261
6 | UGAGGAGAAUAUGAUACCAGCAGAGAGAGAGAGGAAGUAUAGUGAUGUUAUAUGAGAUAAUGCCCUUGGCAGCAUAAGAAGAAGG [#19 K4 Theophylline B Same State] | 163 | 104 | 111 | 178 | 145
7 | AAGCAGUCCCUUGUUGUCAUCGAAGAUGAACGAGGACCGGUACGGCCGCCACUCGGAGUGAUGUUCCGAUGGCUGCAAAAUAAAA [MatMod 21 - Jieux - Exclusion - Tryptophan A] | 101 | 96.7 | 105 | 101 | 108
8 | UCGAUGGUCAGCGAUACCAGCCCAGUGAUGUUGGGCACAUGGUUGCGGAAAAUCCCAUUGGGCCCUUGGCAGCGCUUGCAUGGGU [Titiquesan] | 130 | 122 | 123 | 136 | 116
9 | GCAGUGAUGUUGCACGAGUAGGCUGGAGUACGAGGACCGGUACGGCCGCCACUCGUACGAAAGUCGCUAAUUUAUGGAAUGGUGA [#07 K4 Tryptophan A Same State] | 650 | 623 | 668 | 602 | 467
10 | CCGUGGAGUGAUGUUCCACGUACUACGGAUACCAGCUUUGCCAAAGGCCCUUGGCAGCCGCACGGCUCAGUGAUGUUGGGUCGCG [Same State Theophylline A G10] | 167 | 153 | 172 | 156 | 148
11 | CGUGAGUGAUGUUCACGAGGCUUGUUUCUAGAGGAUAUUCACUUUAGAAGAAGGCUAGAGAUCUAUAUCGUGAUGCUCGAUAACG [FMN A Ex t1] | 295 | 247 | 197 | 260 | 155
12 | UUAUAACCCAGUGAUGUUGGGUAGCGGCCACGAGGACCGGUACGGCCGCCACUCGAGGUUUAACCAGUGAUGUUGGACUAUAUAA [Same state Tryptophan A GF 4] | 51 | 35.2 | 47 | 34.5 | 23.7
13 | AAGGCCACGAGAAGGAGCGUGCUAUGGAGUGAUGUUCCAAUGUAGACCUAAGGUCUACAAGCACAGGUAGGUCGCUCGUGGUCAA [Omei KL Arginine B SS A v2] | 102 | 96.9 | 109 | 100 | 103
14 | UACAUAUCACUUUUUCUACAAUUAUUUAGUCAGGAUAUCGAUUAAACGAGAAGGGACAUUAUCAAGUGAUGUUUGAUAAUUCAAA [JR_Nu_SSFMNA_Sub028] | 156 | 129 | 118 | 159 | 124
15 | UAUGUACACUGGUAGUGGUACAUCGAGGAAGGAGCGUGCGCAGGCACAGGUAGGUCGCCUCAGCGCACGAGUGAUGUUCGUGGGC [Ceaqu] | 308 | 205 | 358 | 262 | 288
16 | UGUACCGAGUCAGGAUAUGGCGUCGAAAGACGAAACCAGUGAUGUUGGAAUCGAUCGAAAGAUCGUCCAGAAGGGACUUGGUACU [FmnBS 21 #SwitchBubble #StaticStem #DoubleMagnetSystem] | 204 | 382 | 377 | 349 | 359

— the supplement of paper PMC9170038
